These results are taken from patent publication US20040120946A1.

Where no end group is shown, it is not given here.

In test [1] the target is antibody against M2 muscarinic receptor in DCM patient serum C (human). Nature of the test: batch adsorption with DCM patient serum C, 37 C, 2 h; antibody left in supernatant read by ELISA on plate-coated M2R peptide. On the technique in general: An ELISA detects its analyte on a solid surface through an enzyme-linked reagent.
The target of test [2] is antibody against β1-adrenoceptor in DCM patient serum A (human). The test is described as follows: batch adsorption: 50 uL adsorbent with 300 uL DCM patient serum A, 37 C, 2 h; antibody left in supernatant read by ELISA on plate-coated β1AR2nd peptide.
In test [3] the target is antibody against β1-adrenoceptor in DCM patient serum B (human). The test is described as follows: batch adsorption with DCM patient serum B, 37 C, 2 h; antibody left in supernatant read by ELISA on plate-coated β1AR2nd peptide.
Test [4] addresses antibody against β1-adrenoceptor in DCM patient serum D (human). The test is described as follows: batch adsorption with DCM patient serum D, 37 C, 2 h; antibody left in supernatant read by ELISA on plate-coated β1AR2nd peptide.

On to VRTVEDGECYIQFFSNAAVTFGTAIPAKK (also: immobilized on Eupergit C 250 L) [peptide (SEQ ID NO:10) immobilized on Eupergit C 250 L (Eu-SEQ ID NO:10)], for which the Adsorptive capacity in test [1] was 60%.

Regarding RAESDEARRCYNDPKCCDFVTNR [peptide (SEQ ID NO:4) immobilized on epoxy-activated GCL2000m (GCL2000m-SEQ ID NO:4)], in test [2], the Adsorptive capacity was determined as 35%.

B1: peptide (SEQ ID NO:9) immobilized on epoxy-activated Kac (Kac-SEQ ID NO:9) (peptide)
peptide: HWWRAESDEARRCYNDPKCCDFVTNRGAC
modifications: cysteine pairing not given here; also: immobilized on epoxy-activated cellulose gel Kac
In test [3], B1 yielded an Adsorptive capacity of 70%.

B2: peptides (SEQ ID NOS:11,12) co-immobilized on epoxy-activated Kac (Kac-SEQ ID NOS:11,12) (protein)
peptide 1: HWWRAESDEARRCYNDPKCCDFVTNRAC
peptide 2: VRTVEDGECYIQFFSNAAVTFGTAIC
modifications: cysteine pairing not given here; also: two separate peptides co-immobilized on epoxy-activated Kac
Turning to B2, in test [4], the Adsorptive capacity was determined as 80%.

B3: second loop of β1-adrenoceptor peptide (β1AR2nd) immobilized on CNBr-activated Sepharose 4B (Sepharose 4B-β1AR2nd) (peptide)
peptide: HWWRAESDEARRCYNDPKCCDFVTNR
modifications: cysteine pairing not given here; also: immobilized on CNBr-activated Sepharose 4B
For the molecule B3, the Adsorptive capacity in test [2] was determined as 15%.
